The record followed here is patent US20210238276A1 (INTEGRAL MOLECULAR, published 2021).

Residue numbers refer to the chain shown, from its start.

Common to all, as to experiment: flow cytometry, alanine-scan library in HEK-293T
A general note: Flow cytometry measures light scatter and fluorescence of single cells or particles in a stream.

In assay [1] the target is T1, hsGLUT4 N508A (human, UniProt P14672 1-509).
T1 sequence: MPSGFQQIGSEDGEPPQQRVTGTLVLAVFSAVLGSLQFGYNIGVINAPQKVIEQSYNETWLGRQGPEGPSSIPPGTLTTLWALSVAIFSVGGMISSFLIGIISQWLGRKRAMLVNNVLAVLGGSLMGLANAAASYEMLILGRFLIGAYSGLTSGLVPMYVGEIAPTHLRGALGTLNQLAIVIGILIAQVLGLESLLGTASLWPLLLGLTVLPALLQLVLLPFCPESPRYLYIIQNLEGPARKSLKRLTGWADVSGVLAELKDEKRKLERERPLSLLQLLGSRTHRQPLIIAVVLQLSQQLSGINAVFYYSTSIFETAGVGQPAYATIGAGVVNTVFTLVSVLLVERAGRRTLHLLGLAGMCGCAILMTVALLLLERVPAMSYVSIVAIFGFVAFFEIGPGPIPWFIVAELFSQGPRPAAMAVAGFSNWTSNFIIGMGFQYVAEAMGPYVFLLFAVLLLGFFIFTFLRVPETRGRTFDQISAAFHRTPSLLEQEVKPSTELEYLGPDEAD
The method, boiled down: (§1)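 HEK-293T cells expressing individual GLUT4 alanine mutants were stained 48 h post-transfection with anti-GLUT4 scFv MAbs (2 μg/ml), then biotinylated secondary and streptavidin-PerCP, and read by high-throughput flow cytometry. Where used, cytochalasin B (10 uM final) was given for 30 min before and during primary antibody staining.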

The target in assay [2] is T2, hsGLUT4 D506A (human, UniProt P14672 1-509).
T2 sequence: T1 sequence with D506A, A508N
The method, boiled down:
as §1

In assay [3] the target is T3, hsGLUT4 Y309A (human, UniProt P14672 1-509).
T3 sequence: T1 sequence with Y309A, A508N
The method, boiled down:
as §1

Assay [4] concerns the target T4, hsGLUT4 L296A (human, UniProt P14672 1-509).
T4 sequence: T1 sequence with L296A, A508N
In short, it runs like this:
as §1

Consider 1F8 (antibody), for which the % of binding to wild type GLUT4 in assay [1] amounted to 21%; in assay [2], 29%; in assay [3] it was 75%; in assay [4] it was 105%.

B1: AB101 (scFv)
scFv: ALTQPSSVSANPGETVKITCSGSSNSYGWYQQKSPGSAPVTVIYYNDKRPSDIPSRFSGSKSDSTHTLTITGVRAEDEAVYFCGSYDSTYVGIFGAGTTLTVLGQSSRSSGGGGSSGGGGSAVTLDESGGGLQTPGGTLSLVCKASGFTFSSNAMGWVRQAPGKGLEWVAGISSDGRYTKYGSAVKGRATISRDNGQSTVRLQLNNLRAEDTGTYFCAKAFGNNYRRIYAGQIDAWGHGTEVIVSS
notes: Chicken-derived clone used as a control; the four lead clones were tested as scFv-human IgG1 Fc; also called MAb AB101
Consider B1, for which the “% of binding to wild type GLUT4” value came to 7% in assay [1], 34% in assay [2], 64% in assay [3] and 90% in assay [4].

B2: AB108 (Fc fusion)
scFv: ALTQPSSVSANLGGTVKITCSGSSGSYGWYQQKAPGSAPVTLIYRNDKRPSDIPSRFSGSESGSTGTLTITGVQAEDEAVYFCGGYDSSAGYAAFGAGTTLTVLGQSSRSSGGGGSSGGGGSAVTLDESGGGLQTPGGALSLVCKASGFTFSSHGMGWVRQAPGKGLEWVGSISTGRYTFYAPAVKGRATISRDNGQSTLRLQLNNLRAEDTGTYYCTKCAGLNGCGGGEIDAWGHGTEVIVSS
notes: Bivalent scFv-Fc; also called MAb AB108; not shown: Fc fragment of human IgG1, cloned in frame with the scFv
B2: the “% of binding to wild type GLUT4” value in assay [1] was 89%; in assay [2] it was 105%; in assay [3] it was 91%; in assay [4], 72%.

B3: AB111 (Fc fusion)
scFv: ALTQPSSVSANPGETVKITCSGSGSWYGWFQQKSPGSAPVTVIYSNDKRPSDIPSRFSGSKSGSTSTLTITGVQVEDEAVYYCGNWDIFGAGTTLTVLGQSSRSSGGGGSSGGGGSAVTLDESGGGLQTPGGALSLVCKASGFTFSSHGMGWVRQAPGKGLEWVASISTGRYTFYAPAVKGRATISRDNGQSTVRLQLNNLRAEDTATYYCTKCAGLNGCGGGEIDAWGHGTEVIVSS
notes: Bivalent scFv-Fc; also called MAb AB111; not shown: Fc fragment of human IgG1, cloned in frame with the scFv
With B3, the “% of binding to wild type GLUT4” value in assay [1] stood at 193%; in assay [2], 158%; in assay [3], 110%; in assay [4], 144%.
